One block for each molecule: values may come before it. Starred links: 1 amine or outer side, 2 acyl side, 3 side chain; linkers in the order of their positions; H or OH if unused. Non-standard residues stand in square brackets, D forms with d. Residues, ends and D or L forms follow the SMILES beside them. *: point of attachment. Phe(4-NO2) = N[C@@H](Cc1ccc([N+](=O)[O-])cc1)C(=O)O; EDANS = O=S(=O)(O)c1cccc2c(NCCN*)cccc12; Suc = O=C(CCC(=O)[*:2])[*:1]; 2Abz = Nc1ccccc1C(=O)O
Legend:
[1] = solubility in aqueous buffer; assay type: physicochemical
[2] = tested on: ACE; settings: from literature, cited from earlier work; for Km: Ref. [16]-[20]
[3] = substrate: O=C(CCC(=O)N[C@@H](Cc1ccccc1)C(=O)N[C@@H](Cc1c[nH]cn1)C(=O)N[C@@H](Cc1c[nH]c2ccccc12)C(=O)O)NCCNc1cccc2c(S(=O)(=O)O)cccc12; assay: continuous spectrofluorometric assay of hydrolysis of fluorogenic substrates by ACE (kinetic parameters); assay type: biochemical, rabbit; settings: other: 0.05M Hepes buffer pH 8.2, 0.2M NaCl, 1M Na2SO4, Lineweaver-Burk, ex 286 nm, em 360 nm, 37.0 °C
Experimental: (§1) Fluorescence data were recorded on a HITACHI Model F2000 fluorescence spectrophotometer (Tokyo, Japan) set at wavelengths of 286 nm (excitation)and 360 nm (emission). The rates of enzymatic hydrolysis of the fluorogenic compounds ES-FWF, ES-FWG, ES-FWH, ES-FWK, ES-FWL and ES-FHW were monitored fluorospectrophotometrically as follows: A solution of ACE was prepared at 1.3×10^-2 units/ml (concentration of enzyme was estimated by using the Bio-Rad protein assay kit with bovine serum albumin as a standard). […] Activity was assayed with hippuryl-L-histidyl-L-leucine as a substrate. One unit of enzyme activity is the amount required to catalyze the formation of 1.0 μmol of hippuric acid per minute (in 50 mM Hepes, pH 8.3, and 0.3M NaCl at 37° C.). For fluorescence measurement, 20 μl of enzyme solution was added to 0.5 ml substrate solution (2×10^-6 -6.5×10^-5 M) in 0.05M Hepes buffer, pH 8.2, containing 0.2M NaCl and 1M Na2 SO4, placed in an optical cell. […] The increase in fluorescence (emission at 360 nm, excitation at 286 nm) with time, in the presence of the enzyme, was recorded continuously. Since the product (and perhaps the substrate as well) is subject to photodecomposition, the slit width of the excitation monochromator must not be too large. Alternatively, the reaction can be monitored automatically by pulse illumination with a time interval of 150, sec, as shown in FIG. 1.
(§2) Dependence of the rate of hydrolysis on substrate concentration was established by initial rate measurements (within the first 10% of hydrolysis). The slope of the line was translated into molar concentrations of the released dipeptides using a calibration curve constructed by fluorescence measurements of solutions containing authentic dipeptide under identical conditions. Km values were calculated by the method of Lineweaver-Burk plots. Five points with approximately equidistance on the 1/[S] abscissa were obtained from the average of two independent measurements. Kinetic parameters for other substrates were also obtained by similar procedures.
(§3) Kinetic parameters of ES-FWF, ES-FWG, ES-FWH, ES-FWK, ES-FWL and ES-FHW for ACE were obtained by continuous spectrofluorometric assay, and the results are listed in Table I. In order to compare the characteristics of the ES-peptides with those of previously reported fluorogenic substrates, the kinetic parameters from literatures were collected for comparison.

[4] = substrate: CC(C)C[C@H](NC(=O)[C@H](Cc1c[nH]c2ccccc12)NC(=O)[C@H](Cc1ccccc1)NC(=O)CCC(=O)NCCNc1cccc2c(S(=O)(=O)O)cccc12)C(=O)O; assay: as above; assay type: biochemical, rabbit; settings: other: 0.05M Hepes buffer pH 8.2, 0.2M NaCl, 1M Na2SO4, Lineweaver-Burk, ex 286 nm, em 360 nm, 37.0 °C
Experimental: as §1, §2, §3

[5] = substrate: O=C(O)CNC(=O)[C@H](Cc1c[nH]c2ccccc12)NC(=O)[C@H](Cc1ccccc1)NC(=O)CCC(=O)NCCNc1cccc2c(S(=O)(=O)O)cccc12; assay: as above; assay type: biochemical, rabbit; settings: other: 0.05M Hepes buffer pH 8.2, 0.2M NaCl, 1M Na2SO4, Lineweaver-Burk, ex 286 nm, em 360 nm, 37.0 °C
Experimental: as §1, §2, §3

[6] = substrate: O=C(CCC(=O)N[C@@H](Cc1ccccc1)C(=O)N[C@@H](Cc1c[nH]c2ccccc12)C(=O)N[C@@H](Cc1c[nH]cn1)C(=O)O)NCCNc1cccc2c(S(=O)(=O)O)cccc12; assay: as above; assay type: biochemical, rabbit; settings: other: 0.05M Hepes buffer pH 8.2, 0.2M NaCl, 1M Na2SO4, Lineweaver-Burk, ex 286 nm, em 360 nm, 37.0 °C
Experimental: as §1, §2, §3

[7] = substrate: O=C(CCC(=O)N[C@@H](Cc1ccccc1)C(=O)N[C@@H](Cc1c[nH]c2ccccc12)C(=O)N[C@@H](Cc1ccccc1)C(=O)O)NCCNc1cccc2c(S(=O)(=O)O)cccc12; assay: as above; assay type: biochemical, rabbit; settings: other: 0.05M Hepes buffer pH 8.2, 0.2M NaCl, 1M Na2SO4, Lineweaver-Burk, ex 286 nm, em 360 nm, 37.0 °C
Experimental: as §1, §2, §3

[8] = substrate: NCCCC[C@H](NC(=O)[C@H](Cc1c[nH]c2ccccc12)NC(=O)[C@H](Cc1ccccc1)NC(=O)CCC(=O)NCCNc1cccc2c(S(=O)(=O)O)cccc12)C(=O)O; assay: as above; assay type: biochemical, rabbit; settings: other: 0.05M Hepes buffer pH 8.2, 0.2M NaCl, 1M Na2SO4, Lineweaver-Burk, ex 286 nm, em 360 nm, 37.0 °C
Experimental: as §1, §2, §3

Molecule: O=C(CCC(=O)N[C@@H](Cc1ccccc1)C(=O)N[C@@H](Cc1c[nH]cn1)C(=O)N[C@@H](Cc1c[nH]c2ccccc12)C(=O)O)NCCNc1cccc2c(S(=O)(=O)O)cccc12 [ES-FHW] ({EDANS-Suc}-Phe-His-Trp-OH)
solubility [1]: 7000 to 40000 µg/mL

Molecule: O=C(O)CNC(=O)[C@H](Cc1c[nH]c2ccccc12)NC(=O)CNC(=O)OCc1ccc([N+](=O)[O-])cc1 [Z(NO2)-GWG, p-nitrobenzyloxycarbonylglycyl-L-tryptophyl-glycine]
Km [2]: 900 µM

Molecule: O=C(CCC(=O)N[C@@H](Cc1ccccc1)C(=O)N[C@@H](Cc1c[nH]c2ccccc12)C(=O)N[C@@H](Cc1ccccc1)C(=O)O)NCCNc1cccc2c(S(=O)(=O)O)cccc12 [ES-FWF] ({EDANS-Suc}-Phe-Trp-Phe-OH)
solubility [1]: 7000 to 40000 µg/mL

Molecule: Nc1ccccc1C(=O)NCC(=O)N[C@@H](Cc1ccc([N+](=O)[O-])cc1)C(=O)N1CCC[C@H]1C(=O)O [Abz-GF(NO2)P, o-aminobenzoyl-glycyl-p-nitro-L-phenylalanyl-L-proline] (H-[2Abz]G[Phe(4-NO2)]P-OH)
Km [2]: 190 µM
kcat ([2]; Ref. [17]-[20]): 1.5 s⁻¹
kcat/Km ([2]; Ref. [17]-[20]): 7.7 × 10^3 M^-1 S^-1

B1: ACE (from rabbit lung, Sigma Chemical Co.) (Oryctolagus cuniculus) (protein)
chain: TLDPGLLPGDFAADEAGARLFASSYNSSAEQVLFRSTAASWAHDTNITAENARRQEEEALLSQEFAEAWGKKAKELYDPVWQNFTDPELRRIIGAVRTLGPANLPLAKRQQYNSLLSNMSQIYSTGKVCFPNKTASCWSLDPDLNNILASSRSYAMLLFAWEGWHNAVGIPLKPLYQEFTALSNEAYRQDGFSDTGAYWRSWYDSPTFEEDLERIYHQLEPLYLNLHAYVRRVLHRRYGDRYINLRGPIPAHLLGNMWAQSWESIYDMVVPFPDKPNLDVTSTMVQKGWNATHMFRVAEEFFTSLGLLPMPPEFWAESMLEKPEDGREVVCHASAWDFYNRKDFRIKQCTQVTMDQLSTVHHEMGHVQYYLQYKDQPVSLRRANPGFHEAIGDVLALSVSTPAHLHKIGLLDHVTNDTESDINYLLKMALEKIAFLPFGYLVDQWRWGVFSGRTPSSRYNFDWWYLRTKYQGICPPVVRNETHFDAGAKFHIPSVTPYIRYFVSFVLQFQFHQALCMEAGHQGPLHQCDIYQSTRAGAKLRAVLQAGCSRPWQEVLKDMVASDALDAQPLLDYFQPVTQWLQEQNERNGEVLGWPEYQWRPPLPNNYPEGIDLVTDEAEASRFVEEYDRSFQAVWNEYAEANWNYNTNITTEASKILLQKNMQIANHTLTYGNWARRFDVSNFQNATSKRIIKKVQDLQRAVLPVKELEEYNQILLDMETIYSVANVCRVDGSCLQLEPDLTNLMATSRKYDELLWVWTSWRDKVGRAILPYFPKYVEFTNKAARLNGYVDAGDSWRSMYETPTLEQDLERLFQELQPLYLNLHAYVGRALHRHYGAQHINLEGPIPAHLLGNMWAQTWSNIYDLVAPFPSASTMDATEAMIKQGWTPRRMFEEADKFFISLGLLPVPPEFWNKSMLEKPTDGREVVCHASAWDFYNGKDFRIKQCTTVNMEDLVVVHHEMGHIQYFMQYKDLPVALREGANPGFHEAIGDVLALSVSTPKHLHSINLLSSEGGGYEHDINFLMKMALDKIAFIPFSYLVDEWRWRVFDGSITKENYNQEWWSLRLKYQGLCPPAPRSQGDFDPGAKFHIPSSVPYIRYFVSFIIQFQFHEALCKAAGHTGPLHTCDIYQSKEAGKRLADAMKLGYSKPWPEAMKVITGQPNMSASAMMNYFKPLMDWLLTENGRHGEKLGWPQYTWTPNSARSEGSLPDSGRVNFLGMNLDAQQARVGQWVLLFLGVALLLASLGLTQRLFSIRYQSLRQPHHGPQFGSEVELRHS
notes: ACE (from rabbit lung, Sigma Chemical Co.); purchased Sigma Chemical Co; host or cells: rabbit lung (tissue)
Km [3]: 15 µM
kcat [3]: 2.0 s⁻¹
kcat/Km [3]: 1.3 × 10^5 M^-1 S^-1
Km [4]: 2.7 µM
kcat [4]: 0.9 s⁻¹
kcat/Km [4]: 3.2 × 10^5 M^-1 S^-1
Km [5]: 23 µM
kcat [5]: 2.0 s⁻¹
kcat/Km [5]: 8.9 × 10^4 M^-1 S^-1
Km [6]: 4.9 µM
kcat [6]: 0.8 s⁻¹
kcat/Km [6]: 1.7 × 10^5 M^-1 S^-1
Km [7]: 4.5 µM
kcat [7]: 2.1 s⁻¹
kcat/Km [7]: 4.6 × 10^5 M^-1 S^-1
Km [8]: 24 µM
kcat [8]: 3.8 s⁻¹
kcat/Km [8]: 1.6 × 10^5 M^-1 S^-1

Next, values leading:

solubility [1]: 7000 to 40000 µg/mL
Molecule: NCCCC[C@H](NC(=O)[C@H](Cc1c[nH]c2ccccc12)NC(=O)[C@H](Cc1ccccc1)NC(=O)CCC(=O)NCCNc1cccc2c(S(=O)(=O)O)cccc12)C(=O)O [ES-FWK] ({EDANS-Suc}-Phe-Trp-Lys-OH)

solubility [1]: 7000 to 40000 µg/mL
Molecule: CC(C)C[C@H](NC(=O)[C@H](Cc1c[nH]c2ccccc12)NC(=O)[C@H](Cc1ccccc1)NC(=O)CCC(=O)NCCNc1cccc2c(S(=O)(=O)O)cccc12)C(=O)O [ES-FWL] ({EDANS-Suc}-Phe-Trp-Leu-OH)

solubility [1]: 7000 to 40000 µg/mL
Molecule: O=C(O)CNC(=O)[C@H](Cc1c[nH]c2ccccc12)NC(=O)[C@H](Cc1ccccc1)NC(=O)CCC(=O)NCCNc1cccc2c(S(=O)(=O)O)cccc12 [ES-FWG] ({EDANS-Suc}-Phe-Trp-Gly-OH)

solubility [1]: 7000 to 40000 µg/mL
Molecule: O=C(CCC(=O)N[C@@H](Cc1ccccc1)C(=O)N[C@@H](Cc1c[nH]c2ccccc12)C(=O)N[C@@H](Cc1c[nH]cn1)C(=O)O)NCCNc1cccc2c(S(=O)(=O)O)cccc12 [ES-FWH] ({EDANS-Suc}-Phe-Trp-His-OH)

Source: patent US5723307A, “Fluorogenic substrates for assay of angiotensin converting enzyme” (Development Center for Biotechnology, priority 1995, dated 1998)
